Sequences and labels used below:
T1: hCD73-his (human, UniProt P21589 26-546)
T1 construct: range 26-546; also called full length extracellular domain of human-CD73
T1 sequence (looked up): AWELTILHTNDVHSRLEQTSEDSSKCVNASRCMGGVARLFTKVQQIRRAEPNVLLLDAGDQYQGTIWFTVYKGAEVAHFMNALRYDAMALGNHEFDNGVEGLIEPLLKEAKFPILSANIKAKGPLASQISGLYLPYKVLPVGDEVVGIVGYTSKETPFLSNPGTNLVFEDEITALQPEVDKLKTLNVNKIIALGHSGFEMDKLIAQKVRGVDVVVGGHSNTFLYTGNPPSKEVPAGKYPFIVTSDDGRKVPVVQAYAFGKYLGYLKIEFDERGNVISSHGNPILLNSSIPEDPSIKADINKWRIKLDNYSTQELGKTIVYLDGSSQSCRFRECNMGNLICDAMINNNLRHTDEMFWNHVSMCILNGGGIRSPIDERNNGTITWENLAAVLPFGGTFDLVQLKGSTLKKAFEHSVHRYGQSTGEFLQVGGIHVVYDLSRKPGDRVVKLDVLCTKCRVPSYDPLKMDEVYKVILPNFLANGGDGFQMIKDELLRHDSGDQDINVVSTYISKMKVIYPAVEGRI

T2: human CD73 on cells (human, UniProt P21589 27-549)
T2 sequence (looked up): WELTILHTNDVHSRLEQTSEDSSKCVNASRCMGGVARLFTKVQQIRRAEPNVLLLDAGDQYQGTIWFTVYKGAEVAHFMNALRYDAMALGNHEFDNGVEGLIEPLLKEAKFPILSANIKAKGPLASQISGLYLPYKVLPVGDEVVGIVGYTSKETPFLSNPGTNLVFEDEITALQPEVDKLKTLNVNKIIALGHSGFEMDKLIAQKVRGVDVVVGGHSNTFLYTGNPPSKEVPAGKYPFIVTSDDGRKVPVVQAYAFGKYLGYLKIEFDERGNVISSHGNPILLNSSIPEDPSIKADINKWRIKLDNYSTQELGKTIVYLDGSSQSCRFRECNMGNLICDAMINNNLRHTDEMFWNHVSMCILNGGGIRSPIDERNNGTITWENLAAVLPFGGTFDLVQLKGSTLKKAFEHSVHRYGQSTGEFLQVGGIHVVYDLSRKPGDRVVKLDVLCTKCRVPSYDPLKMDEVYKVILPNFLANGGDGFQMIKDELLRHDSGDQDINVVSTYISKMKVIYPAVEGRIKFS

B1: CD73.4-IgG2.3-plusTHT (antibody)
heavy: QVQLVESGGGVVQPGRSLRLSCAASGFTFSNYGMHWVRQAPGKGLEWVAVILYDGSNKYYPDSVKGRFTISRDNSKNTLYLQMNSLRAEDTAVYYCARGGSSWYPDSFDIWGQGTMVTVSSASTKGPSVFPLAPCSRSTSESTAALGCLVKDYFPEPVTVSWNSGALTSGVHTFPAVLQSSGLYSLSSVVTVPSSNFGTQTYTCNVDHKPSNTKVDKTVERKSCVETHTCPPCPAPPVAGPSVFLFPPKPKDTLMISRTPEVTCVVVDVSHEDPEVQFNWYVDGVEVHNAKTKPREEQFNSTFRVVSVLTVVHQDWLNGKEYKCKVSNKGLPAPIEKTISKTKGQPREPQVYTLPPSREEMTKNQVSLTCLVKGFYPSDIAVEWESNGQPENNYKTTPPMLDSDGSFFLYSKLTVDKSRWQQGNVFSCSVMHEALHNHYTQKSLSLSPGK
light: not shown
notes: also called mAb-CD73.4-IgG2.3-plusTHT; CD73.4-Vh-hHC-IgG2.3-plusTHT
B2: CD73.4-IgG2.5G1-KH (antibody)
heavy: QVQLVESGGGVVQPGRSLRLSCAASGFTFSNYGMHWVRQAPGKGLEWVAVILYDGSNKYYPDSVKGRFTISRDNSKNTLYLQMNSLRAEDTAVYYCARGGSSWYPDSFDIWGQGTMVTVSSASTKGPSVFPLAPSSRSTSESTAALGCLVKDYFPEPVTVSWNSGALTSGVHTFPAVLQSSGLYSLSSVVTVPSSNFGTQTYTCNVDHKPSNTKVDKTVERKCCVECPPCPAPPVAGPSVFLFPPKPKDTLMISRTPEVTCVVVDVSHEDPEVKFNWYVDGVEVHNAKTKPREEQYNSTYRVVSVLTVLHQDWLNGKEYKCKVSNKALPAPIEKTISKAKGQPREPQVYTLPPSREEMTKNQVSLTCLVKGFYPSDIAVEWESNGQPENNYKTTPPVLDSDGSFFLYSKLTVDKSRWQQGNVFSCSVMHEALHNHYTQKSLSLSPGK
light: not shown
notes: also called mAb-CD73.4-IgG2.5G1-KH; CD73.4-Vh-hHC-IgG2.5G1-KH
B3: CD73.4-IgG2.3G1-KH (antibody)
heavy: QVQLVESGGGVVQPGRSLRLSCAASGFTFSNYGMHWVRQAPGKGLEWVAVILYDGSNKYYPDSVKGRFTISRDNSKNTLYLQMNSLRAEDTAVYYCARGGSSWYPDSFDIWGQGTMVTVSSASTKGPSVFPLAPCSRSTSESTAALGCLVKDYFPEPVTVSWNSGALTSGVHTFPAVLQSSGLYSLSSVVTVPSSNFGTQTYTCNVDHKPSNTKVDKTVERKSCVECPPCPAPPVAGPSVFLFPPKPKDTLMISRTPEVTCVVVDVSHEDPEVKFNWYVDGVEVHNAKTKPREEQYNSTYRVVSVLTVLHQDWLNGKEYKCKVSNKALPAPIEKTISKAKGQPREPQVYTLPPSREEMTKNQVSLTCLVKGFYPSDIAVEWESNGQPENNYKTTPPVLDSDGSFFLYSKLTVDKSRWQQGNVFSCSVMHEALHNHYTQKSLSLSPGK
light: not shown
notes: also called mAb-CD73.4-IgG2.3G1-KH; CD73.4-Vh-hHC-IgG2.3G1-KH
B4: CD73.4-IgG2.5 (antibody)
heavy: QVQLVESGGGVVQPGRSLRLSCAASGFTFSNYGMHWVRQAPGKGLEWVAVILYDGSNKYYPDSVKGRFTISRDNSKNTLYLQMNSLRAEDTAVYYCARGGSSWYPDSFDIWGQGTMVTVSSASTKGPSVFPLAPSSRSTSESTAALGCLVKDYFPEPVTVSWNSGALTSGVHTFPAVLQSSGLYSLSSVVTVPSSNFGTQTYTCNVDHKPSNTKVDKTVERKCCVECPPCPAPPVAGPSVFLFPPKPKDTLMISRTPEVTCVVVDVSHEDPEVQFNWYVDGVEVHNAKTKPREEQFNSTFRVVSVLTVVHQDWLNGKEYKCKVSNKGLPAPIEKTISKTKGQPREPQVYTLPPSREEMTKNQVSLTCLVKGFYPSDIAVEWESNGQPENNYKTTPPMLDSDGSFFLYSKLTVDKSRWQQGNVFSCSVMHEALHNHYTQKSLSLSPGK
light: not shown
notes: also called mAb-CD73.4-IgG2.5; CD73.4-Vh-hHC-IgG2.5
B5: CD73.4-IgG2.5G1.1f-KH (antibody)
heavy: QVQLVESGGGVVQPGRSLRLSCAASGFTFSNYGMHWVRQAPGKGLEWVAVILYDGSNKYYPDSVKGRFTISRDNSKNTLYLQMNSLRAEDTAVYYCARGGSSWYPDSFDIWGQGTMVTVSSASTKGPSVFPLAPSSRSTSESTAALGCLVKDYFPEPVTVSWNSGALTSGVHTFPAVLQSSGLYSLSSVVTVPSSNFGTQTYTCNVDHKPSNTKVDKTVERKCCVECPPCPAPPVAGPSVFLFPPKPKDTLMISRTPEVTCVVVDVSHEDPEVKFNWYVDGVEVHNAKTKPREEQYNSTYRVVSVLTVLHQDWLNGKEYKCKVSNKALPSSIEKTISKAKGQPREPQVYTLPPSREEMTKNQVSLTCLVKGFYPSDIAVEWESNGQPENNYKTTPPVLDSDGSFFLYSKLTVDKSRWQQGNVFSCSVMHEALHNHYTQKSLSLSPGK
light: not shown
notes: also called mAb-CD73.4-IgG2.5G1.1f-KH; CD73.4-Vh-hHC-IgG2.5G1.1f-KH
B6: CD73.4-IgG2.3-plusGGG (antibody)
heavy: QVQLVESGGGVVQPGRSLRLSCAASGFTFSNYGMHWVRQAPGKGLEWVAVILYDGSNKYYPDSVKGRFTISRDNSKNTLYLQMNSLRAEDTAVYYCARGGSSWYPDSFDIWGQGTMVTVSSASTKGPSVFPLAPCSRSTSESTAALGCLVKDYFPEPVTVSWNSGALTSGVHTFPAVLQSSGLYSLSSVVTVPSSNFGTQTYTCNVDHKPSNTKVDKTVERKSCVEGGGCPPCPAPPVAGPSVFLFPPKPKDTLMISRTPEVTCVVVDVSHEDPEVQFNWYVDGVEVHNAKTKPREEQFNSTFRVVSVLTVVHQDWLNGKEYKCKVSNKGLPAPIEKTISKTKGQPREPQVYTLPPSREEMTKNQVSLTCLVKGFYPSDIAVEWESNGQPENNYKTTPPMLDSDGSFFLYSKLTVDKSRWQQGNVFSCSVMHEALHNHYTQKSLSLSPGK
light: not shown
notes: also called mAb-CD73.4-IgG2.3-plusGGG; CD73.4-Vh-hHC-IgG2.3-plusGGG
B7: CD73.4-IgG2.5-plusTHT (antibody)
heavy: QVQLVESGGGVVQPGRSLRLSCAASGFTFSNYGMHWVRQAPGKGLEWVAVILYDGSNKYYPDSVKGRFTISRDNSKNTLYLQMNSLRAEDTAVYYCARGGSSWYPDSFDIWGQGTMVTVSSASTKGPSVFPLAPSSRSTSESTAALGCLVKDYFPEPVTVSWNSGALTSGVHTFPAVLQSSGLYSLSSVVTVPSSNFGTQTYTCNVDHKPSNTKVDKTVERKCCVETHTCPPCPAPPVAGPSVFLFPPKPKDTLMISRTPEVTCVVVDVSHEDPEVQFNWYVDGVEVHNAKTKPREEQFNSTFRVVSVLTVVHQDWLNGKEYKCKVSNKGLPAPIEKTISKTKGQPREPQVYTLPPSREEMTKNQVSLTCLVKGFYPSDIAVEWESNGQPENNYKTTPPMLDSDGSFFLYSKLTVDKSRWQQGNVFSCSVMHEALHNHYTQKSLSLSPGK
light: not shown
notes: also called mAb-CD73.4-IgG2.5plusTHT/LC; CD73.4-Vh-hHC-IgG2.5plusTHT/LC

The target of one assay is T1, hCD73-his. Put plainly: SEC of equimolar mAb + hCD73-his. On the procedure:
The oligomeric state of CD73/antibody complexes were examined by size-exclusion chromatography coupled to an in-line multi-angle light scattering detector (SEC-MALS). Isocratic separations were performed on a Shodex PROTEIN KW-803 column connected to an Prominence Shimadzu UFLC in buffer containing 200 mM K₂HPO₄, 150 mM NaCl, pH 6.8, containing 0.02% Na azide (0.1 μm filtered) running at 0.5 mL/min. Samples were injected onto the column using a SIL-20AC Prominence Shimadzu® autosampler, and data were obtained from three online detectors connected in series: a Prominence SPD-20AD diode array UV/vis spectrophotometer followed by a Wyatt miniDAWN™ TREOS Multi-Angle Light Scattering Detector then a Wyatt Optilab T-rEX Refractive Index Detector® instrument. Data were collected and analyzed using Astra® (Wyatt) and Labsolutions® (Shimadzu) software.
CD73.4 antibodies having the heavy chain constant regions set forth in Table 14 were also tested for formation of high molecular weight complexes by SEC-MALS and DLS experiments, as described in Example 3.
On to B1, for which the “UV % Peak1 (<12.9 min)” value was 30.6%, the “UV % Peak4 (16.7-19.3 min)” value is 33.7% and the “UV % Peak5 (>19.3 min)” value was 3.2%.

The target of a further assay is T2, human CD73 on cells. Put plainly: cell-based or functional assay.
Regarding B2, the “internalization T1/2, Calu6” value was 17 min; the “internalization T1/2, NCI-H292” value was found to be 15.4 min; the “internalization Ymax, Calu6” value is 76%; the “internalization Ymax, NCI-H292” value amounted to 90.8%.
As for B3, the “internalization T1/2, Calu6” value was determined as 23.8 min; the “internalization T1/2, NCI-H292” value came out at 16.8 min; the “internalization Ymax, Calu6” value was determined as 81.6%; the “internalization Ymax, NCI-H292” value came to 91.6%.
Consider B4, for which the “internalization T1/2, Calu6” value was 20.9 min; the “internalization T1/2, NCI-H292” value turned out to be 18.3 min; the “internalization Ymax, Calu6” value amounted to 79%; the “internalization Ymax, NCI-H292” value worked out at 89.6%.
Turning to B5, the “internalization T1/2, Calu6” value is 21.2 min; the “internalization T1/2, NCI-H292” value is 18 min; the “internalization Ymax, Calu6” value turned out to be 79.6%; the “internalization Ymax, NCI-H292” value is 90.9%.
Regarding B1, the “internalization T1/2, Calu6” value was found to be 21.3 min; the “internalization T1/2, NCI-H292” value is 17.6 min; the “internalization Ymax, Calu6” value was 81.2%; the “internalization Ymax, NCI-H292” value came out at 91.4%.
In the case of B6, the “internalization T1/2, Calu6” value is 20.1 min; the “internalization T1/2, NCI-H292” value was found to be 16.3 min; the “internalization Ymax, Calu6” value stood at 81.7%; the “internalization Ymax, NCI-H292” value is 91.6%.
Taken in the same sequence, the figures for B7 were 17.2 min, 15.4 min, 80.2% and 89.6%.

Source of the values: patent US20240141059A1 (Bristol-Myers Squibb, published 2024).
